From patent US20230183336A1 (MODMAB THERAPEUTICS, published 2023)

Target: T1, recombinant mouse LRP6-His chimera (mouse, UniProt O88572 20-1370)
T1 construct: extracellular domain; also called ECD of mouse LRP6; not shown: His tag
T1 sequence (looked up): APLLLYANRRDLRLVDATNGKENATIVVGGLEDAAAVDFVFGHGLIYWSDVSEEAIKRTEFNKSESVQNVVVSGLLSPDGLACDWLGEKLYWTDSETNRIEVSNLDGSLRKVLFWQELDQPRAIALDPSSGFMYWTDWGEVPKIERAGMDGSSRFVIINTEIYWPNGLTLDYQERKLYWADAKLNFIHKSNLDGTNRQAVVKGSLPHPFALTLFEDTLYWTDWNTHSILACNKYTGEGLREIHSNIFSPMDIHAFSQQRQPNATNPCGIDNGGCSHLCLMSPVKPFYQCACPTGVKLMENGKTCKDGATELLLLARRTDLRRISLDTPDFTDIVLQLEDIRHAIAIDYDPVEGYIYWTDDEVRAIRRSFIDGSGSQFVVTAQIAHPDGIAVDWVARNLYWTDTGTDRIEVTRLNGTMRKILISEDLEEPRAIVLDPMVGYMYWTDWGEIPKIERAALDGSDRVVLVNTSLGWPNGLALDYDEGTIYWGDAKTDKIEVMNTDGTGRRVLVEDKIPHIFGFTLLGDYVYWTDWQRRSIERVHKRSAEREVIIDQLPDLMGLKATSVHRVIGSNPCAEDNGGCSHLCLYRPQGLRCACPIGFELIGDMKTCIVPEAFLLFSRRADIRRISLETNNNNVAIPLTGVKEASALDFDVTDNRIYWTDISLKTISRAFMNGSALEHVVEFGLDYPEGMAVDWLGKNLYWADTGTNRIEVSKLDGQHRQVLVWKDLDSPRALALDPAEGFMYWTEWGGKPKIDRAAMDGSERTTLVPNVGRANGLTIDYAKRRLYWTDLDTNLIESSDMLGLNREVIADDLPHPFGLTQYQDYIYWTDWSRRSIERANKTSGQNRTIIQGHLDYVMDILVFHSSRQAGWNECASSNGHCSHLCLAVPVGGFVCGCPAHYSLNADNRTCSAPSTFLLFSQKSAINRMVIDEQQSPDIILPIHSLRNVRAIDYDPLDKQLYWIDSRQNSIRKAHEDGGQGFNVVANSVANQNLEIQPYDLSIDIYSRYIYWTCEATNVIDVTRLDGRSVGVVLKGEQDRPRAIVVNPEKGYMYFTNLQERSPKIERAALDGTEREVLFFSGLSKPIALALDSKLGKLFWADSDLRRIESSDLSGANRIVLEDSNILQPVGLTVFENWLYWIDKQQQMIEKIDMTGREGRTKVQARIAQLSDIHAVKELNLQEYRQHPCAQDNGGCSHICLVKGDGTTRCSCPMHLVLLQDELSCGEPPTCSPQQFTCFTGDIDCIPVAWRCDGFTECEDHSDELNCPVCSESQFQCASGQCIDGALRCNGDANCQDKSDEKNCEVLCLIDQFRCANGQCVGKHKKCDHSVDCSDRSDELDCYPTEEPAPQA
Assay: single-point ELISA, coated antigen, purified Fab or IgG1, anti-kappa-HRP
Experimental: FIGS. 1A and 1B show sixteen (16) anti-LRP antibodies. (A) The amino acid sequences of the complementarity determining regions (CDR) of the heavy (H) and the light (L) chains are presented. The antibodies were grouped into unique epitopes as determined by competitive ELISAs. (B) Single-point ELISAs were performed on 96-well Maxisorb immune plates coated with ECD's of mouse LRP5, mouse LRP6 and human LRP6 chimeras. The plates were incubated with the purified Fab or IgG1 at the concentrations indicated followed by incubation with horseradish peroxidase (HRP)-conjugated anti-kappa antibody. The wells were washed eight times followed by incubation with 3,3′,5,5′-tetramethylbenzidine/H₂O₂ peroxidase (TMB) substrate for 5-10 min. The reaction was stopped by adding 1M H₃PO₄ and the absorbance was measured spectrometrically at 450 nm in a microtiter plate reader. FIG. 1A discloses “SSVA” as SEQ ID NO: 34, and “SASSLYS” as SEQ ID NO: 35, as well as SEQ ID NOS 36-49, 51, 44, 2-4, 4, 5-7, 5, 4, 5, 8-10, 4, 52, 55, 11-16, 15, 15, 13, 17-20, 13, 53, 56, 21-23, 22, 24-33, 54, 57, respectively, in order of columns.
The full length IgG1s and the antibody fragments (Fabs) were purified and a single-point ELISA was done to determine the specificity of the antibodies. […] A multipoint competitive ELISA was used to determine the relative affinities of the antibodies to the recombinant antigen.

B1: LRP5-H5 (antibody, V domains shown)
VH: EVQLVESGGGLVQPGGSLRLSCAASGFNLSYSSIHWVRQAPGKGLEWVASISSSYGSTSYADSVKGRFTISADTSKNTAYLQMNSLRAEDTAVYYCARGYWAIDYWGQGTLVTVSS
VL: DIQMTQSPSSLSASVGDRVTITCRASQSVSSAVAWYQQKPGKAPKLLIYSASSLYSGVPSRFSGSRSGTDFTLTISSLQPEDFATYYCQQPVGHYGYPITFGQGTKVEIKR
notes: Fab-phage in the screen
B1: binds.
